Test results from the RNAGym collection of RNA variant scans (doi:10.7554/elife.80360).

B1: CPEB3 Ribozyme (parent)
chain: GGGGGCCACAGCAGAAGCGUUCACGUCGCGGCCCCUGUCAGAUUCUGGUGAAUCUGCGAAUUCUGCUGU

Variants of: B1
Test: self-cleavage, relative activity (ratio to wild type); higher = more cleavage; co-transcriptional

Compared with A15C A51C, A15C A52G is higher in self-cleavage: 0.752 for the first, 0.98 for the second.

First: A15C A59C
Second: A15C A60C
The self-cleavage of the first is lower: 0.288 for the first, 0.308 for the second.

Compared with A15C A60G, A15C A60U is higher in self-cleavage: 0.292 for the first, 0.377 for the second.

Going from A15C C18A to A15C C18G, the self-cleavage falls from 0.174 to 0.0508.

Compared with A15C C18U, A15C C22U is lower in self-cleavage: 0.296 for the first, 0.2 for the second.

First: A15C C24A
Second: A15C C24U
The self-cleavage of the first is higher: 0.273 for the first, 0.27 for the second.

Compared with A15C C27G, A15C C27U is lower in self-cleavage: 0.123 for the first, 0.119 for the second.

First: A15C C29G
Second: A15C C29U
The self-cleavage of the first is higher: 0.163 for the first, 0.122 for the second.

First: A15C C32A
Second: A15C C32G
The self-cleavage of the first is higher: 0.302 for the first, 0.153 for the second.

First: A15C C33A
Second: A15C C33G
The self-cleavage of the first is higher: 0.32 for the first, 0.259 for the second.

Compared with A15C C34A, A15C C35A is lower in self-cleavage: 0.394 for the first, 0.229 for the second.

Compared with A15C C35G, A15C C39G is higher in self-cleavage: 0.285 for the first, 0.596 for the second.

Going from A15C C39U to A15C C54A, the self-cleavage falls from 0.535 to 0.447.

First: A15C C54G
Second: A15C C54U
The self-cleavage of the first is lower: 0.567 for the first, 0.865 for the second.

First: A15C C57U
Second: A15C C63G
The self-cleavage of the first is lower: 0.423 for the first, 0.921 for the second.

First: A15C C66A
Second: A15C C66U
The self-cleavage of the first is lower: 0.357 for the first, 0.725 for the second.

Going from A15C G17A to A15C G17U, the self-cleavage rises from 0.136 to 0.25.

Compared with A15C G25A, A15C G28A is higher in self-cleavage: 0.127 for the first, 0.138 for the second.

Compared with A15C G28C, A15C G28U is higher in self-cleavage: 0.146 for the first, 0.191 for the second.

Compared with A15C G30A, A15C G30U is lower in self-cleavage: 0.392 for the first, 0.0766 for the second.

Going from A15C G31A to A15C G31C, the self-cleavage falls from 0.456 to 0.27.

Compared with A15C G37A, A15C G37C is lower in self-cleavage: 0.196 for the first, 0.105 for the second.

First: A15C G37U
Second: A15C G41A
The self-cleavage of the first is lower: 0.168 for the first, 0.289 for the second.

Compared with A15C G41C, A15C G47U is higher in self-cleavage: 0.215 for the first, 0.916 for the second.

Compared with A15C G48A, A15C G48C is lower in self-cleavage: 0.935 for the first, 0.918 for the second.

First: A15C G48U
Second: A15C G50A
The self-cleavage of the first is lower: 0.883 for the first, 0.933 for the second.

First: A15C G50C
Second: A15C G56A
The self-cleavage of the first is higher: 0.808 for the first, 0.651 for the second.

Going from A15C G56U to A15C G58A, the self-cleavage rises from 0.626 to 0.809.

First: A15C G58C
Second: A15C G65A
The self-cleavage of the first is higher: 0.84 for the first, 0.43 for the second.

Compared with A15C G68C, A15C G68U is higher in self-cleavage: 0.917 for the first, 0.969 for the second.

Going from A15C U20A to A15C U20C, the self-cleavage rises from 0.125 to 0.284.

Going from A15C U20G to A15C U21A, the self-cleavage rises from 0.139 to 0.791.

First: A15C U21C
Second: A15C U26A
The self-cleavage of the first is higher: 0.51 for the first, 0.48 for the second.

Compared with A15C U26C, A15C U36A is lower in self-cleavage: 0.73 for the first, 0.288 for the second.

Going from A15C U36C to A15C U36G, the self-cleavage falls from 0.487 to 0.214.

First: A15C U38A
Second: A15C U38C
The self-cleavage of the first is higher: 0.595 for the first, 0.571 for the second.

Going from A15C U38G to A15C U43C, the self-cleavage rises from 0.292 to 0.754.

Compared with A15C U44A, A15C U44C is lower in self-cleavage: 0.662 for the first, 0.659 for the second.

Going from A15C U44G to A15C U46A, the self-cleavage rises from 0.739 to 0.93.

First: A15C U46C
Second: A15C U49C
The self-cleavage of the first is higher: 0.88 for the first, 0.842 for the second.

Going from A15C U49G to A15C U53A, the self-cleavage falls from 0.858 to 0.651.

Compared with A15C U55A, A15C U55C is higher in self-cleavage: 0.435 for the first, 0.545 for the second.

Compared with A15C U61A, A15C U61C is lower in self-cleavage: 0.468 for the first, 0.356 for the second.

Compared with A15C U61G, A15C U64A is higher in self-cleavage: 0.723 for the first, 0.952 for the second.

First: A15C U64C
Second: A15C U64G
The self-cleavage of the first is higher: 0.958 for the first, 0.91 for the second.

Going from A15C U67G to A15C U69C, the self-cleavage rises from 0.934 to 0.978.

Compared with A15G, A15G A16G is lower in self-cleavage: 1 for the first, 0.93 for the second.

First: A15G A16U
Second: A15G A23G
The self-cleavage of the first is lower: 0.691 for the first, 0.959 for the second.

Compared with A15G A23U, A15G A40G is lower in self-cleavage: 1.04 for the first, 0.996 for the second.

Compared with A15G A42C, A15G A42G is higher in self-cleavage: 0.789 for the first, 0.928 for the second.

Compared with A15G A51C, A15G A52C is lower in self-cleavage: 0.993 for the first, 0.949 for the second.

First: A15G A59G
Second: A15G A59U
The self-cleavage of the first is higher: 0.994 for the first, 0.785 for the second.

Going from A15G A60C to A15G A60G, the self-cleavage rises from 0.43 to 0.821.

Compared with A15G C18A, A15G C18G is higher in self-cleavage: 0.192 for the first, 0.198 for the second.

Going from A15G C18U to A15G C22U, the self-cleavage falls from 0.792 to 0.287.

First: A15G C24A
Second: A15G C27A
The self-cleavage of the first is higher: 0.691 for the first, 0.645 for the second.

Compared with A15G C27G, A15G C27U is lower in self-cleavage: 0.316 for the first, 0.204 for the second.

First: A15G C29A
Second: A15G C29G
The self-cleavage of the first is higher: 0.636 for the first, 0.458 for the second.

First: A15G C32A
Second: A15G C32U
The self-cleavage of the first is lower: 0.816 for the first, 1.02 for the second.

Going from A15G C33A to A15G C33G, the self-cleavage falls from 0.798 to 0.534.

First: A15G C33U
Second: A15G C34A
The self-cleavage of the first is higher: 0.999 for the first, 0.764 for the second.

First: A15G C34G
Second: A15G C34U
The self-cleavage of the first is lower: 0.665 for the first, 1.01 for the second.

First: A15G C35A
Second: A15G C35G
The self-cleavage of the first is lower: 0.273 for the first, 0.457 for the second.

Going from A15G C35U to A15G C39A, the self-cleavage falls from 0.96 to 0.833.

Compared with A15G C45A, A15G C45G is lower in self-cleavage: 1 for the first, 0.965 for the second.

Compared with A15G C45U, A15G C54A is lower in self-cleavage: 1.02 for the first, 0.914 for the second.

Compared with A15G C54G, A15G C54U is higher in self-cleavage: 0.886 for the first, 1.04 for the second.

First: A15G C57A
Second: A15G C57G
The self-cleavage of the first is higher: 0.45 for the first, 0.259 for the second.

First: A15G C63A
Second: A15G C63G
The self-cleavage of the first is higher: 0.799 for the first, 0.674 for the second.

Compared with A15G C63U, A15G C66A is lower in self-cleavage: 0.947 for the first, 0.828 for the second.

Compared with A15G C66U, A15G G17A is lower in self-cleavage: 0.964 for the first, 0.312 for the second.

First: A15G G17U
Second: A15G G19A
The self-cleavage of the first is higher: 0.424 for the first, 0.216 for the second.

Going from A15G G19C to A15G G19U, the self-cleavage rises from 0.15 to 0.439.

Compared with A15G G25A, A15G G25C is higher in self-cleavage: 0.127 for the first, 0.133 for the second.

Going from A15G G25U to A15G G28A, the self-cleavage rises from 0.148 to 0.179.

Going from A15G G28U to A15G G30A, the self-cleavage rises from 0.141 to 0.917.

First: A15G G30U
Second: A15G G31A
The self-cleavage of the first is lower: 0.342 for the first, 0.874 for the second.

First: A15G G31C
Second: A15G G37A
The self-cleavage of the first is lower: 0.204 for the first, 0.27 for the second.

First: A15G G37U
Second: A15G G41U
The self-cleavage of the first is lower: 0.286 for the first, 0.891 for the second.

Compared with A15G G47A, A15G G48A is lower in self-cleavage: 0.971 for the first, 0.966 for the second.

Compared with A15G G48C, A15G G48U is lower in self-cleavage: 1 for the first, 0.989 for the second.

Compared with A15G G50A, A15G G56A is lower in self-cleavage: 0.973 for the first, 0.944 for the second.

Compared with A15G G56C, A15G G56U is higher in self-cleavage: 0.785 for the first, 0.985 for the second.

Variant A15G G58C has a self-cleavage of 1.01.
